Laboratory results as given in patent US20140220017A1 (published 2014).

Legend:
[1] = molecular target: mouse IgG Fab (mouse); assay: QCM; pH 6
[2] = molecular target: human IgG (human); assay: QCM; pH 6
[3] = molecular target: human IgG Fab (human); assay: QCM; pH 6
[4] = molecular target: mouse IgG (mouse); assay: QCM; pH 6
[5] = molecular target: human IgG Fc (human); assay: QCM; pH 6
[6] = molecular target: mouse IgG Fab (mouse); assay: QCM; pH 7.4
[7] = molecular target: human IgG (human); assay: QCM; pH 7.4
[8] = molecular target: mouse IgG Fc (mouse); assay: QCM; pH 7.4
[9] = molecular target: human IgG Fab (human); assay: QCM; pH 7.4
[10] = molecular target: mouse IgG (mouse); assay: QCM; pH 7.4
[11] = molecular target: human IgG Fc (human); assay: QCM; pH 7.4

B1: SpGC3 (other)
chain: DAAQPAMAQVKLQQSGAELVRSGTSVKLSCTASGFNIKDSYMHWLRQGPEQGLEWIGWIDPENGDTEYAPKFQGKATFTTDTSSNTAYLQLSSLTSEDTAVYYCNEGTPTGPYYFDYWGQGTTVTVSSGGGGSDIQMTQSPSSLSASVGDRVTITCRASQDIRNYLNWYQQKPGKAPKLLIYYTSRLESGVPSRFSGSGSGTDYTLTISSLQPEDFATYYCQQGNTLPWTFGQGTKVEIKRGGGGSGGRASGGGGSEVQLVESGGGLVQPGGSLRLSCAASGYSFTGYTMNWVRQAPGKGLEWVALINPYKGVSTYNQKFKDRFTISVDKSKNTAYLQMNSLRAEDTAVYYCARSGYYGDSDWYFDVWGQGTLVTVSSGGGGSDIELTQSPAIMSASPGEKVTITCSASSSVSYMHWFQQKPGTSPKLWIYSTSNLASGVPARFSGSGSGTSYSLTISRMEAEDAATYYCQQRSSYPLTFGAGTKLELKRAAAGGSGGTTYKLVINGKTLKGETTTKAVDAETAEKAFKQYANDNGVDGVWTYDDATKTFTVTEGGSHHHHHH
Binder B1 has a Kd [1] of 190 nM, a Kd [2] of 5 nM and a Kd [3] of 150 nM. The Kd [4] was 46 nM, the Kd [5] was 3.6 nM and the Kd [6] was 190 nM. It also gave a Kd [7] of 6 nM, a Kd [8] of 24 nM and a Kd [9] of 190 nM. It also gave a Kd [10] of 58 nM and a Kd [11] of 10 nM.
